Measured values: patent publication EP2450379B1

Target: HA in BPL-inactivated virus preparation of A/New Caledonia/20/99 (H1N1) (influenza A virus A/New Caledonia/20/99 (H1N1))
Experiment: ELISA, IgG 5 µg/ml

| Substance | OD 492nm |
| --- | --- |
| CR3014 (antibody) | 0.09 OD 492nm |
| CR6261 (antibody) | 1.46 OD 492nm |
